Measured values published in the nanobody polyreactivity screen of Harvey et al. (2022).

Test: yeast display, Sf9 membrane polyspecificity reagent, FACS + sequencing; frameworks hold sequencing errors
Method in brief: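 After 36–48 hours of galactose induction, yeast (Saccharomyces cerevisiae BJ5465) displaying a synthetic nanobody library were stained at 4 °C for 1 hour with 10% biotinylated, detergent-solubilized Sf9 membrane reagent. Streptavidin microbeads enriched the stained cells before FACS sorting into low and high (top ~1%) gates on anti-HA and streptavidin fluorescence. Each clone's polyreactivity label reflects its gate of origin.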

Sequence	polyreactivity (PSR sort gate)
QVQLVESGGGLVQAGGSLRLSCAASGGIFRHNAMGWYRQAPGKERELVAAISRSGGNTYYADSVKGRFTISRDNAKNTVYLQMNSLKPEDTAVYYCNKIEYDSWADHVYWGQGTQVTVSS	low polyreactivity
QVQLVESGGGLVQAGGSLRLSCAASGGSFYPYAMGWSRQAPGKERELLAAISWSGDITYYADSVKGRFTISRDNANNTVYLQMNSLKPEDTAVYYCAAGRVVDKDPSYFREGDYWGQGTQVTVSS	low polyreactivity
QVQLVESGGGLVQAGGSLSLSCAASGRTFNNNAMGCYIPAPGKERELVAAITSGASTNYADSVKGRFTISRDNAKNTVYLQMNSLKPEDTAVYYCAKATYPHEYDYWGQGTQVTVSS	low polyreactivity
QVQLVESGGGLVQAGGSLRLSCAASGRIFRYNTMGWYRQAPGKERELVADITSSDSSTYYADSVKGRFTISRDNAKNTVYLQMNSLKPEDTAVYYCAARDSGYGWRYYYWGQGTQVTVSS	low polyreactivity
QVQLVESGGGLVQAGGSLRLSCAASGITFSSYAMGWSRQAPGKERELVAAITSRGGSTYYADSVKGRFTISRDNAKNTVYLQMNSLKPEDTAVYYCNASRVRRWNDYYKKFDYWGQGTQVTVSS	high polyreactivity
QVQLVESGGGLVQAGGSLRLSCAASGSIFSYYAMGWYRQAPGKERELVAAISQSGGTTYYADSVKGRFTISRDNAKNTDYLQMKSLKPEDTAVYYCAARAPSSFDTQYYYWGQGTQVTVSS	low polyreactivity
QVQLVESGGGLVQAGGSLRLSCAASGFIFNWYAMGWYRQAPGKERELVAVITSSGGSTYYADSVKGRFTISRDNAKNTVYLQMNSLKPDDTAVYYCNKKPGPAPNKYRITARYYYWGQGTQVTVSS	high polyreactivity
QVQLVESGGGLVQAGGSLRLSCAASGSTFAQYAMGWYRQAPGKEREFVAAITRGGGRTYYADSVKGRFTISRDNAKNSVYLQMNSLKPEDTAVYYCNAVYRYYPFDYWGQGTQVTVSS	high polyreactivity
QVQLVESGGGLVQAGGSLRLICAASGRTFRGYAMGWYRQAPGKERELVAAISVTGSSTNYADSVKGRFTISRDNAKNTVYLQMNSLKPEDTAVYYCNAKRVRYSLSYDYWGQGTQVTVSS	high polyreactivity
QVQLVETGGGLVQAGGSLRLSCAPSGSIYYINAMGWYRQAPGKERELVAAIRSGGSTNYADSVKGLFTISRDNAKNTVYLQMNSLKPEDTAVYYCNARSRSYVPYYYWGQGTQVTVSS	high polyreactivity
QVQLVESGGGLVQAGGSHRVRCAASGRTFSQYDLGWYRQEPGKERELVAAITRSGSRTYYADSVKGRFTISRDNAKNTVYLQMNSLKPEDTAVYYCNARSISRKKGYPPQRRDGYWGQGTQVTVSS	high polyreactivity
QVQLVESGGGLVQPGGSLRLSCAASGGTFQPNAMVWYRQAPGKERELVAAISWSDGSTYYADSVKGRFTISLDNAKNTVYLQMNSLKPVDTAVYYCAADFTYYDSPYRDYNYESWGQGTQVTVSS	low polyreactivity
QVQLVESGGGLVQAGGSLRLSCAASGRIFDIYAMGWYRQAPGKERELVAGITSVGSTNYADSVKGRFTISRDNEKNTVYLQMNSLKPEDTAVYYCAAKAYFSTSPYHREHDSWGQGTQVTVSS	low polyreactivity
QVQLVESGGGLDQAGGSLRLSCAASVSTFLVNTMGWYRQAPGKEREFVAAYADSVKGRFTISRDNAKNTVYLQMNSLKPEYTAVYYCNAGGSEIYRSPFDYWGQGTQVTVSS	low polyreactivity
QVQLVESGGGLVQAGGSLRLSCAASGITIFGYAMGWYRQAPGKERELVAAINYSGDSTYYADSVKGRFTISRDNAKNTVYLQMNSVKPEDTAVYYCAATRSYRQPGPKYKSYYYLYYYWGQGTQVTVSS	high polyreactivity
QDQLVESGGGLVQAGGSLRLSCAASALIFSLNAMGWYRQAPGTERELVAAISSDDSTYYADSVKGRFTISRDNAKNTVYLQMNSLKPEDTAVYYCAAVQLVPGYVDSNDYYWGQGTQVTVSS	low polyreactivity
QVQLVESVGGLVQAGGSLRLSCAASGSIFTHNTMGWYRQAPGKERELVASIDSGASTNYADSVKGRFTISRDNAKNTVYLQMNSLKPEDTAVYYCAARDYDWGYPYYYWGQGTQVTVSS	low polyreactivity
QVQLVESGGGLVQAGGSLRLSCAASGRTFYGYPMGWYRQAPGKERELVAAISWSGGSTYYADSVKGRFTISRDNAKNTVYLQMNSLKPEDTAVYYCAAYTYSFRANHDYWGQGTQVTVSS	high polyreactivity
QVQLVESVGGLVQAGGSLRLSCAASGLIFLVNAMGWYRQAPGKERELVAAIDRDGGITYADSVKGRFTISRDNAKNTVYLQLNSLKPEDTAVYYCAADPSSYGRFTYDYWGQGTQVTVSS	low polyreactivity
QVQLVESGGGLVQAGGSLRLSCAASGITFYRYAMGWYRQEPGKERELVAAISRSGGSTYYADSVKGRFTISRDNAKNTVYLQMNSLKPQDTEVYYCADYILGNRVGYDYWGQGTQVTVSS	high polyreactivity
QVQLVESGAGLVQAGGSLRLSFAASGRTFRGYAMGLYRQGPGKEREWVAAISSGGSTYYADSVKGRFTISRDNAKNTVSLQMYSLKPEDTAVYYCARAVGNYRTLEFDYWGQGTQVTVSS	low polyreactivity
QVQLVESGGGLVQAGGSLRLSCAASGSIFWRNAMGWYRQAPGKERELVAAITKTGASTYYADSVKGRFTISRDNAKNTVYLQMNSLKPEDTAVYYCAKDTRGRYAGSYRYDYCGQGTQVTVSS	low polyreactivity

Sequence	polyreactivity (PSR sort gate)
QVQLVESGGGLVQAGGSLRLSCAASGIIFKYYVMGWYRQAPGKERELVAGIRSGGNTYYADSVKGRFTISRDNAKNTVYFQMNSLKPEDTAVYYCNARPQFRFTDSYDYWGQGTQVTVSS	high polyreactivity
QVQIVESGGRLVQAGCSLRLSCAASGRIFTRYAMGWYRQAPGKERELVASIRHSGGSTYYADSVKGRFTISRDNAKNTVYLQMNSLKPEDTAVYYCAARGKKGTRYNYNYWGHGTQVTVSS	high polyreactivity
QVQLVESGGGLVQAGGSLRLSCAASGFIFAYNAMGWYRQAPGKERELVAAISWSGGSTYYADSVKGRFTISRDNAKNTVFLQMNSLLPEDTAVYYCAARYRRNKYYYWGQGTQVTVSS	high polyreactivity
QVQLVESGGGLVQAGGSLRLSCAASGRIFSYYTMGGYRQAPGTERELVAAISSGGSTNYADSVKGRFTISRDNAKNTVYLQMNSLKPEDTAVYYCAVRSGRRNYDRPAFGYWGQGTQVTVSS	high polyreactivity
QVQLVESGGGLVQAGGSLRLSCAASGSIFDTNAMGWYRQAPGKERELVAAINDSGGSTDYADSVKGRFTISRDNAKNTVYLQMNSLKPEDTAVYYCAADIYYTGYNGPEYYWVGMDYWGQGTQVTVSS	low polyreactivity
QVQLVESGGVLVQAGGSLRLSCAASGFTFTPNAMGWYTQAPGKERELVAAIDWNGGSTYYADAVKGRFTISRDNAKNTVYLQMNSLKPEDTAVYYCAADDEEWKVITDYDYWGQGTQVTVSS	low polyreactivity
QVHLVESGGGLVQAGGSLRLSCAASGSTFQWYAMGWYIQAPGKERELVATISYTGGSRTYYADSVKGRFTNSRDNAKNTVYLQMNSLKPEDTAVYDCAAESNQLFYFRRFDFWGQGTQVTVSS	low polyreactivity
QDQLVESVGGIVQAGGSLRLRCAASGFIYSRNAIGWYSEAPGKDREFVARIRWSVGSTYYADSVKGRFTISRENAKNTVYLMMTSLKPEVTAVYSCAADYYKRYKYLYDYWGQGTQVTVSS	high polyreactivity
QVQLVESGGGLVQAGGSLRLSCAASGRTFYRNVMGWYRQEPGKEREMVASIRTSGGSTYYADSVKGRFTISRDNAKNTVYLQMNSQKPEDTAVYYCATRVFVYPYRRYSHYDYWGLGTQVTVSS	high polyreactivity
QVQLVESGGGLVQAGGSLRLSCAASGRIFGRYAMGWYRQAPGKERELVAAITSGGSTKYADSVKGRFTISRDNAKNNVDLQMNSLKPEDTAVYYCAVVPYGPVYRSYYYWGQGTQVTVSS	high polyreactivity
QVQLVESGGGLVQAGGSLRLSCAASGSIFYWYAMGWYRQAPGKERELVAAIDISDDTYYADSVKGRFTISRDNAKNTVYLQMNSLKPEDTAFYYCAARNTRWFYEYDWGQGTQVTVSS	high polyreactivity
QVQLVESGGGLVQAGGSLRLSCAASGSTFWYNAMGWYRQAPGKERELVASITLSGARTYYADSVKGRFTISRDNAKNTVYLQMNSLKPEDTAVYYCAKRTGRVKYYYWGQGTQVTVSS	high polyreactivity
QVQLVESGGGLVQAGGSLRLSCAASGSIFSWYAMGWYRQAHGKEREFVAGISSSGSTKYADSVKGRFTISRDNAKNTVYLQMNSLKPEDTAVYYCAVANKSQRYFYYYFHYYYWGQGTQVTVSS	low polyreactivity
QVQHVESRGGLDPAGGSLRLSCAASGRIFRGNAMGWSSQATGKERELVASITWRGTSTYYADSVKGRFTISRDIAMNTVYLQMNSLKPEDTAVYYCNAVTQTRGYYWGQGTQVTVSS	high polyreactivity
QVQLVESGGGLVQAGGSLRLSCAASGRTFVYYAMGWYRQAPGKEREFVATISDGGGTYYADSVKGRFTISRDNAKNTVYLQMNSMNPEDSAVYYCNARGTPWRYGGDYWGQGTQVTVSS	low polyreactivity
QVQLVESGGGLVQAGGSLRLSCAASGSIFFYYAMGWYRQAPGKERELVAAINWSGVNTYYADSVKGRFTISRDNAKNTVYLQMNSLKPEDTAVYYFNAVVSLTSYGYLGYLFDYWGQGTLVTVSS	low polyreactivity
QVQLVESGGGLVQAGGRLRLSCDASGRIFTYNAMGWYRQAPGKERELVGAITFSGGGTYYADSVKGRFTISRDNAKNTVYLVMTSLKPEDTAVYYCNQVSFGYSTYGYWGQGTQVTVSS	low polyreactivity
QVHLVESGGGLVQAGGSLRLSCAASGRTFANYAMGWYRQAPGKERELVAAISFSTVSTYYADSVKGRFTISRDNAKNTVYLQMNSLKPEDTAVYYCAARRLGYYRKVKELDYWGQGTQVTVSS	high polyreactivity
QVQLVESGGGLVQAGGSLRLSCAASGRIFRWYTMGWYRQAPGKERELVARISSGGITYYADSVKGPFTISRDNAKNTVYLQMNSLKPEDTAVYYCNTYVSRNFDYWGQGTQLTVSS	high polyreactivity
QVQLVESGGGLVQAGGSLGLSCAASGSIFSRNTMGWYRPARGKERELVAAITSSGGNTYYADSVKGRFTISRDNAKNTVYLQMNSLKPDDTAVYYCAADVAQVGYQVGDSEIYPGYEDWGQGSQVTVSS	low polyreactivity
QVQLVESGGGLVQAGGSLRLSCAASGRTFDVNAMGWYRQAPGKERELVAAIRISGGSTYYADSVKGRFTISRDNAKITVYLQMNSLKPEDTAVYYCAAYERRYRNAYDYWGQGTQVTVSS	high polyreactivity
